Data reported in patent publication US20030092624A1 (YISSUM RESEARCH DEVELOPMENT COMPANY OF THE HEBREW …, published 2003).

T1: Citrate Synthase (CS), Roche Diagnostics (UniProt P00889 28-464)
T1 sequence (looked up): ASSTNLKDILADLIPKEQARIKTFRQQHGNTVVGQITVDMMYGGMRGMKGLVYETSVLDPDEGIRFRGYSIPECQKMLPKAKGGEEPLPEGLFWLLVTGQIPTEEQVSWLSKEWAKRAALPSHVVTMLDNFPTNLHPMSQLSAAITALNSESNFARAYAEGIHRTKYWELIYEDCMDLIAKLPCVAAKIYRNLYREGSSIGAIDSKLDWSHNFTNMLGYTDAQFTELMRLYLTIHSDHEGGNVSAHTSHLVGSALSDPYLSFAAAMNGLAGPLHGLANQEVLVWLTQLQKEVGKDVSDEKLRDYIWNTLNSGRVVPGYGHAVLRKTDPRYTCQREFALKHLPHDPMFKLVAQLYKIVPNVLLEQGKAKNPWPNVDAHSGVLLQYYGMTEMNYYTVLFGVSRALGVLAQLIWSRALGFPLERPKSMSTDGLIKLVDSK

T2: Horseradish Peroxidase (HRP), Sigma (horseradish, UniProt P00433 31-338)
T2 sequence (looked up): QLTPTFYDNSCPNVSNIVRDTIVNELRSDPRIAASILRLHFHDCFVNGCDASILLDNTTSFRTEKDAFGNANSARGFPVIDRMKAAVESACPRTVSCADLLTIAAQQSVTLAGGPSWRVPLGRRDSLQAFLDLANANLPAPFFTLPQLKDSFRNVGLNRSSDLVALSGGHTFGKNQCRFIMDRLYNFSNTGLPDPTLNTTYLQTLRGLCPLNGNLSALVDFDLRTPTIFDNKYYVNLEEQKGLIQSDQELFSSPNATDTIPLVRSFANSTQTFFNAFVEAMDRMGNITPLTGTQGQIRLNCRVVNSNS


Experiments:
[1] = molecular target: T1, Citrate Synthase (CS), Roche Diagnostics; experiment: cell-based or functional assay
[2] = molecular target: Horseradish Peroxidase (HRP), Sigma (horseradish) (UniProt P00433); experiment: cell-based or functional assay
[3] = molecular target: alpha-amylase (Sigma, A 6380); experiment: cell-based or functional assay
[4] = molecular target: superoxide dismutase (SOD), cosmetic grade ('dismutin', Pentapharm Ltd.); experiment: cell-based or functional assay
[5] = molecular target: the molecule itself; experiment: SDS-tricine PAGE; self-association of SP1 monomers
[6] = molecular target: T2, Horseradish Peroxidase (HRP), Sigma; experiment: cell-based or functional assay

Molecule	remaining CS enzymatic activity at 43° C. after 40 minutes, CS:CBD-SP1 monomeric molar ratio of 1:20 [1] [%]	remaining CS enzymatic activity at 43° C. after 40 minutes, CS:CBD-SP1 ratio of 1:5 [1] [%]	HRP activity rescued after room temperature inactivation [2] [%]	alpha-amylase activity after 2 hours in 2 M CaCl2 [3] [%]	increase in alpha-amylase activity 2 hours after SP1 addition [3] [%]	remaining alpha-amylase activity after one-week incubation at room temperature [3] [%]	SOD activity compared to SP1 untreated SOD [4] [%]	binding result [5]	protection of HRP activity at 55° C. compared with BSA at 1:300 [6] [fold]	protection of HRP activity at 55° C., HRP:SP1 molar ratio of 1:300, 60 minutes [6] [%]	remaining HRP activity at 55° C., HRP:SP1 molar ratio of 1:300, 2 hours [6] [%]	protection of CS activity against heat inactivation at 43° C., CS:SP1 ratio of 1:5, 40 minutes [1] [%]	remaining CS enzymatic activity at 43° C., CS:SP1 ratio of 1:50, 15 minutes [1] [%]	remaining CS enzymatic activity at 43° C., CS:SP1 ratio of 1:50, 40 minutes [1] [%]
recombinant CBD-SP1 fusion protein (32.4 kDa monomer) expressed in E. coli from pET-CBD-180-SP1	73	33												
native SP1 protein purified from aspen plants (116 kDa oligomer / 12.4 kDa monomer) (other, Homo-oligomer; On Western blots the protein was separated by SDS-PAGE first; also called purified SP1; plant SP1 protein) MATRTPKLVKHTLLTRFKDEITREQIDNYINDYTNLLDLIPSMKSFNWGTDLGMESAELNRGYTHAFESTFESKSGLQEYLDSAALAAFAEGFLPTLSQRLVIDYFLY			10	50	60	> 40	60	binds	~3	> 60	53	22	~100	≥ 93
